US5279812
Like-named read-outs stand apart in the source and are kept apart here.

Assays:
Bovine thrombin (bovine) [1] = biological target: Bovine thrombin (bovine) (UniProt P00735)
Bovine thrombin (bovine) [2] = biological target: Bovine thrombin (bovine) (UniProt P00735); remark: listed apart in the source

| IC50, thrombin induced fibrin clot inhibition assay (turbidity at 405 nM) (Bovine thrombin (bovine) [1]) | IC50, thrombin induced fibrin clot inhibition assay (turbidity at 405 nM) (Bovine thrombin (bovine) [2]) | Substance |
| --- | --- | --- |
| < 25 µM |  | Suc 3,5-diI-Tyr Glu Pro Ile Pro Glu Glu Ala Cha D-Glu (ID#4) (peptide) |
|  | < 25 µM | Suc--Tyr--Glu--Pro--Ile--Pro--Glu--Glu--Cha--D--Glu (ID#21) (peptide) |
|  | < 25 µM | Suc--Tyr--Glu--Pro--Ile--Pro--Glu--Glu--Cha--Gln--NH2 (ID#11) (peptide) |
|  | < 25 µM | Suc--Tyr--Glu--Pro--Tiq--Glu--Glu--Ala--Cha--D--Glu (ID#9) (peptide) |
